EC50 data for three molecules are collected here from patent US20260250420A1 (SICHUAN KELUN BIOTECH BIOPHARMACEUTICAL, published 2026).

T1: human PTK7 on cells (tumor cells endogenously expressing PTK7); CHO-hPTK7, CHO-S-hPTK7 and 293T-hPTK7 … (human, UniProt Q13308 31-1070)
T1 construct: whole, on cells; The cell line of each value is named under assay; also called H1299; H358
T1 sequence (looked up): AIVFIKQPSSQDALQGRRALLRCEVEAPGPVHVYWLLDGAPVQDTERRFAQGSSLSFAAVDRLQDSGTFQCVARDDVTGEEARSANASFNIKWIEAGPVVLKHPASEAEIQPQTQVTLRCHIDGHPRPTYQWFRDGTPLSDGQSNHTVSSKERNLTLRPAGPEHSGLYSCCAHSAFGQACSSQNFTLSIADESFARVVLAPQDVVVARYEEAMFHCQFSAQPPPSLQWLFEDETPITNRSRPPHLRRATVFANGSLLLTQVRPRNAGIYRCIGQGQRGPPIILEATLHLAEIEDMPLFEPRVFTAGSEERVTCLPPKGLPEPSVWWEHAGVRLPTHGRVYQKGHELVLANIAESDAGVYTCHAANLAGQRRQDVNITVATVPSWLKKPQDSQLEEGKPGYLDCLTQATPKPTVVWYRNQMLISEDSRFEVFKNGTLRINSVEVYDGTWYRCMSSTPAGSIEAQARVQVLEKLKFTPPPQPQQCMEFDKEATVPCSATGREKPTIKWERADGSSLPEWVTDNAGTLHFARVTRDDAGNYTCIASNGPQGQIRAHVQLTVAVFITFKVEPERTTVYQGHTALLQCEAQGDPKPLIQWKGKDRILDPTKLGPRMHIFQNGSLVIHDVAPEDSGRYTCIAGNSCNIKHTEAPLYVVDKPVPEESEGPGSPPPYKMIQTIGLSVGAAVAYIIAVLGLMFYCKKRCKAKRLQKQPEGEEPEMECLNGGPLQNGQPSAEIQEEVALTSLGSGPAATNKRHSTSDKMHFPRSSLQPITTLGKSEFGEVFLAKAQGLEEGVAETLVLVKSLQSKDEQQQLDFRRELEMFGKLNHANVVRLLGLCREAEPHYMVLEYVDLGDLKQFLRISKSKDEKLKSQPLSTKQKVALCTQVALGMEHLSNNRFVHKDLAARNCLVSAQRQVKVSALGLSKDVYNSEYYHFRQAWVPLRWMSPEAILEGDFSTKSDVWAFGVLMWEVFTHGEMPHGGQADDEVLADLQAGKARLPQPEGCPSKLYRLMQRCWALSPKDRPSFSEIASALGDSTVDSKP

T2: human PTK7 protein (extracellular sequence of human PTK7 with C-terminal 6×His tag) (human, UniProt Q13308 31-704)
T2 construct: extracellular domain; Expressed transiently in HEK293 cells; also called human PTK7-His; human PTK7-His protein
T2 sequence: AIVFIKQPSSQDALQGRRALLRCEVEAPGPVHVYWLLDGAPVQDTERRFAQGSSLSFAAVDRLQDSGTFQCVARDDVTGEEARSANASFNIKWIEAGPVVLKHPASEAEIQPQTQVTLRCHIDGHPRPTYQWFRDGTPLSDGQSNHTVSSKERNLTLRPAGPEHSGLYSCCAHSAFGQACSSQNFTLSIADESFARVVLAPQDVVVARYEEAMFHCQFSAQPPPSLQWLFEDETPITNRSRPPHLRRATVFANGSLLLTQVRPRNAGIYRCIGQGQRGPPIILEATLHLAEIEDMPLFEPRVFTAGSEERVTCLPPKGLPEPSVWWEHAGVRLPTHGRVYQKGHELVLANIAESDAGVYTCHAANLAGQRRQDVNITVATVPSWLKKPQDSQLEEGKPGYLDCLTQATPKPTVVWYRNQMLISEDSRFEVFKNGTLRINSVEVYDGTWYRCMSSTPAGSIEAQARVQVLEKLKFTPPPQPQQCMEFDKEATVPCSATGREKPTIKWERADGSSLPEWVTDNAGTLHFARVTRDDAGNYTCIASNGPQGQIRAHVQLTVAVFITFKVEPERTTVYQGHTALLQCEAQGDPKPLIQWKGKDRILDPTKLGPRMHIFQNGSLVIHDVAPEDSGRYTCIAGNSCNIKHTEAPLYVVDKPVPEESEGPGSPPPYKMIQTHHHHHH

B1: Hu24 (PTK7 control antibody, taken from Hu24 in the Patent CN201580030255) (antibody)
chain 1: QVQLVQSGPEVKKPGASVKVSCKASGYTFTDYAVHWVRQAPGKRLEWIGVISTYNDYTYNNQDFKGRVTMTRDTSASTAYMELSRLRSEDTAVYYCARGNSYFYALDYWGQGTSVTVSS
chain 2: EIVLTQSPATLSLSPGERATLSCRASESVDSYGKSFMHWYQQKPGQAPRLLIYRASNLESGIPARFSGSGSGTDFTLTISSLEPEDFAVYYCQQSNEDPWTFGGGTKLEIK
B2: 101A6HZ (anti-human PTK7 humanized antibody) (antibody, human IgG1, kappa)
heavy: not shown
light: DIVMTQSPDSLAVSLGERATINCKASQDVGSAVIWYQQKPGQSPKLLIYWASTRHTGVPDRFSGSGSGTDFTLTISSLQAEDVAVYYCQQYSSYPLTFGQGTKLEIKRTVAAPSVFIFPPSDEQLKSGTASVVCLLNNFYPREAKVQWKVDNALQSGNSQESVTEQDSKDSTYSLSSTLTLSKADYEKHKVYACEVTHQGLSSPVTKSFNRGEC
B3: 64A10HZ (anti-human PTK7 humanized antibody) (antibody, human IgG1, kappa, V domains shown)
VH: QVQLQESGPGLVKPSETLSLTCTVSGFSLTSYGVYWVRQPPGKGPEWLGVIWTSGNTNYNPSLKSRLTISKDNSKNQVSLKLSSVTAADTAVYYCVKHDGGNYVGVMNYWGQGTLVTVSS
VL: EIVMTQSPDFQSVTPKEKVTITCRASQSISDYLHWYQQKPDQSPKLLIKYASQSISGVPSRFSGSGSGSDFTLTINSLEAEDAATYYCQNGHSFPPTFGQGTKLEIKR
notes: Human IgG1 heavy chain constant region and human Kappa light chain constant region; expressed in CHO-S cells

The target in one assay is T1, human PTK7 on cells (tumor cells …). As to the kind of experiment: flow cytometry on T47D cells. From the text: (§1) A flow cytometer (Beckman, Cytoflex) was used for detecting the affinity of the anti-human PTK7 chimeric and humanized antibodies with human non-small cell lung cancer cells H1299, human lung adenocarcinoma cells H1975, human breast cancer cells T47D, human ovarian cancer cells OVCAR-3 (all purchased from NANJING COBIOER BIOSCIENCES CO., LTD) and CHO-hPTK7 overexpression cells.
(§2) The adherent cells were digested by using a pancreatin (Gibco) solution; a proper amount of cells were counted and taken, washed twice by using 1×PBS, and re-suspended in a 1% BSA solution; and then the cells were transferred into a 96-well deep plate at a density of 50 μl/well; a candidate antibody was diluted by using 1% BSA, then 50 μl of diluted antibody was added into the deep plate containing the cells, and incubated for 40 min at 4° C.; the cells were washed twice by using PBS, then 50 μl of diluted secondary antibody was added into each well, uniformly mixed, and incubated for 30 min at 4° C.; and the cells were washed twice by using PBS, then re-suspended in 400 μl of PBS, and subjected to examination by flow cytometer.
The term EC50 denotes the concentration that produces a half-maximal response. The low end stands for greater potency, the high end for weaker potency. The molecule B1 showed an EC50 of 0.0861 µg/mL.

For B2, the EC50 turned out to be 0.0968 µg/mL. The EC50 values of the last two molecules are within 1.5-fold of each other.

B3: the EC50 worked out at 0.217 µg/mL. This EC50 is about 2.2-fold higher than that of the molecule before.

The next assay has the same target. As to the kind of experiment: flow cytometry on H1299 cells.
From the text: as §1, §2
(In general: A flow cytometer gives signals particle by particle.)
In turn, B1 gave an EC50 of 0.0649 µg/mL.

B2 displayed an EC50 of 0.0843 µg/mL.

On to B3, for which the concentration for a half-maximal effect (EC50) amounted to 0.0475 µg/mL.

For another assay, the target named is T2, human PTK7 protein (extracellular …). As to the kind of experiment: ELISA, coated human PTK7-His protein 1 µg/ml. How it is done:
The original data was imported into software for nonlinear curve fitting, and the EC₅₀ of binding of each antibody to the human PTK7 was calculated, respectively.
On the technique in general: ELISA stands for enzyme-linked immunosorbent assay.
Regarding B1, the response was half-maximal at 0.0466 µg/mL (EC50).

B2: the EC50 amounted to 0.0266 µg/mL.

As to B3, it took 0.0155 µg/mL to reach a half-maximal effect (EC50).
